The values that follow come from article PMC7127234.

Data set [1] relates to CCCCN1C(=O)c2cccc3c(NC(=O)[C@@H]4CCCN4C(=O)CN)ccc(c23)C1=O. Kind of data set: purified protein. To be noted: Gly-Pro group cleaved by DPP-IV to release BAN.
Data set [2] concerns Cc1cc(=O)oc2cc(NC(=O)[C@@H]3CCCN3C(=O)CN)ccc12. Kind of data set: purified protein.

The Km is the concentration of substrate that gives half-maximal velocity.

“DPP-IV (dipeptidyl peptidase IV) (Homo sapiens)”: the Michaelis-Menten constant (Km) was 42.93 µM in data set [1] and 237.80 µM in data set [2].
